In patent US20220213227A1 (published 2022):

Tests used:
human HER2 on cells = human HER2 on cells (human, UniProt P04626 23-1255); assay: cell-based or functional assay
[1] = biological target: T1, human CD3 gamma-epsilon-Fc fusion protein (human); assay: SPR using the human CD3gamma-epsilon-Fc construct
T1 construct: also called CD3 gamma-epsilon-Fc protein; human CD3gamma-epsilon-Fc construct

human OX40 on cells = biological target: T2, human OX40 on cells (human, UniProt P43489 29-277); assay: cell-based or functional assay
T2 sequence (looked up): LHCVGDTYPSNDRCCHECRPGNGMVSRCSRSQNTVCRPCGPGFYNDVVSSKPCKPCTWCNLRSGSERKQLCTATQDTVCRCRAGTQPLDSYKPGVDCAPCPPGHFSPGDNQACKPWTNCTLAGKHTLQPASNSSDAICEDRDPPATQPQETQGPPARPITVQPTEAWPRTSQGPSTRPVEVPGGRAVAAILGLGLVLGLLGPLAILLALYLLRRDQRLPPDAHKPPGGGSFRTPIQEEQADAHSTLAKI

human CD20 on cells = biological target: T3, human CD20 on cells (human, UniProt P11836 1-297); assay: cell-based or functional assay
T3 sequence (looked up): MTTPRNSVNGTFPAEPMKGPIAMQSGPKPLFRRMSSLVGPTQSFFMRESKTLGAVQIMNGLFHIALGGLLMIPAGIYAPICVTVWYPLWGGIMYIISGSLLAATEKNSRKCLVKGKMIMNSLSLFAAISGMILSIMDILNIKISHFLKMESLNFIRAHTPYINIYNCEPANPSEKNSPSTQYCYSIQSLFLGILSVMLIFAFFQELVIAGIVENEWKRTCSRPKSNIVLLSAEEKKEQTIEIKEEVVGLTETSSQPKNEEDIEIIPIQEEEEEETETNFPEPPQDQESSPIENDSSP

human EGFR on cells [2] = biological target: T4, human EGFR on cells (human, UniProt P00533 25-1210); assay: cell-based or functional assay
human EGFR on cells [3] = biological target: T4, human EGFR on cells; assay: cell-based or functional assay; remark: listed apart in the source
[4] = biological target: soluble extracellular region of cynomolgus monkey CD38 antigen fused to a 6-His-tag (cynomolgus monkey, UniProt Q5VAN0 45-301); assay: SPR
[5] = biological target: T5, soluble extracellular region of human CD38 fused to a 6-His-tag (human, UniProt P28907 43-300); assay: SPR, antibody captured on protein G chip, equilibrium response vs concentration
T5 construct: Extracellular region = UniProt P28907 residues 43-300, with a 6-His-tag at the C-terminal end; also called human CD38 protein; human CD38 antigen

B1: BEAT HER2/CD3-1 antibody (bispecific antibody, human IgG1, kappa, L234A L235A)
heavy: EVQLVESGGGLVQPGGSLRLSCAASGYTFTRYTMHWVRQAPGKGLEWIGYINPSRGYTYYADSVKGRFTLSTDKSKNTAYLQMSSLRAEDTAVYYCARYYDDHYCLDYWGQGTLVTVSSASTKGPSVFPLAPSSKSTSGGTAALGCLVKDYFPEPVTVSWNSGALTSGVHTFPAVLQSSGLYSLSSVVTVPSSSLGTQTYICNVNHKPSNTKVDKKVEPKSCDKTHTCPPCPAPEAAGGPSVFLFPPKPKDTLMISRTPEVTCVVVDVSHEDPEVQFKWYVDGVEVHNAKTKPREEQYNSTFRVVSVLTVLHQDWLNGKEYKCKVSNKALPAPIEKTISKTKGQPREPAVYTLPPSREEMTKNQVKLVCLVTGFYPSDIAVEWESSGQPENNYYTTPPMLDSDGSFSLVSWLNVDKSRWQQGNIFSCSVMHEALHNRFTQKSLSLSPGK
light: DIQLTQSPSSLSASVGDRVTITCRASSSVSYVAWYQQKPGKAPKRWIYDTSKLYSGVPSRFSGSGSGTDYTLTISSLQPEDFATYYCQQWSSNPPTFGQGTKVEIKRTVAAPSVFIFPPSDEQLKSGTASVVCLLNNFYPREAKVQWKVDNALQSGNSQESVTEQDSKDSTYSLSSTLTLSKADYEKHKVYACEVTHQGLSSPVTKSFNRGEC
chain: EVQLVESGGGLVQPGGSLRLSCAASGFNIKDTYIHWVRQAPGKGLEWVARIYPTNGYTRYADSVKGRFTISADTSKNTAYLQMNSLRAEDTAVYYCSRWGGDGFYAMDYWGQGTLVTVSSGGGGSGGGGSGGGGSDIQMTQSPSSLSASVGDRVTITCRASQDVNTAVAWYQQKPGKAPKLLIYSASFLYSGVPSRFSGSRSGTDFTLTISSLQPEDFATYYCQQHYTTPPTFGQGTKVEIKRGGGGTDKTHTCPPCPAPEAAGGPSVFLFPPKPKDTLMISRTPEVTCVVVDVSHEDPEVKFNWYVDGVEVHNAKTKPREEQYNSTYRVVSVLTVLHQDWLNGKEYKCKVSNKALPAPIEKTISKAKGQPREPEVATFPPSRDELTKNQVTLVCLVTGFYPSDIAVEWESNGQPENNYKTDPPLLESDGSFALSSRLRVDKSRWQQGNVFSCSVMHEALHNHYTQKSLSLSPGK
notes: also called HER2/CD3-1 bispecific antibody
**Q.** B1 was tested. Which “EC50 of T cell redirected killing of BT-474 cells (RDL-MTS)” value (human HER2 on cells) did it give?
**A.** Its value is 0.0006 nM.

**Q.** And the “EC50 of T cell redirected killing of JIMT-1 cells (RDL-FACS)” value (human HER2 on cells)?
**A.** Its value is 0.0014 nM.

**Q.** And the “EC50 of T cell redirected killing of JIMT-1 cells (RDL-MTS)” value (human HER2 on cells)?
**A.** Its value is 0.021 nM.

**Q.** And the “EC50 of T cell redirected killing of MDA-MB-231 cells (RDL-FACS)” value (human HER2 on cells)?
**A.** The value was 0.08 nM.

**Q.** And the “EC50 of T cell redirected killing of MDA-MB-231 cells (RDL-MTS)” value (human HER2 on cells)?
**A.** The value was roughly 0.2 nM.

**Q.** Does B1 bind [1]?
**A.** Result: binds

B2: BEAT OX40/CD3 antibody (bispecific antibody, human IgG1, kappa, L234A L235A)
heavy: QVTLKESGPALVKPTQTLTLTCSFSGFSLSTSGMGVGWIRQPPGKALEWIAHIWWDDDKYYNTALKTRLTISKDTSKNQVVLTMTNMDPVDTATYYCARIDWDGFAYWGQGTLVTVSSASTKGPSVFPLAPSSKSTSGGTAALGCLVKDYFPEPVTVSWNSGALTSGVHTFPAVLQSSGLYSLSSVVTVPSSSLGTQTYICNVNHKPSNTKVDKKVEPKSCDKTHTCPPCPAPEAAGGPSVFLFPPKPKDTLMISRTPEVTCVVVDVSHEDPEVKFNWYVDGVEVHNAKTKPREEQYNSTYRVVSVLTVLHQDWLNGKEYKCKVSNKALPAPIEKTISKAKGQPREPAVYTLPPSRDELTKNQVKLVCLVTGFYPSDIAVEWESNGQPENNYYTTPPVLDSDGSFSLVSWLNVDKSRWQQGNVFSCSVMHEALHNHYTQKSLSLSPGK
light: EIVLTQSPATLSLSPGERATLSCRASSSVSYMHWYQQKPGQAPRPWIYATSNRATGIPARFSGSGSGTDYTLTISSLEPEDFAVYYCQQWSSNPWTFGQGTKVEIKRTVAAPSVFIFPPSDEQLKSGTASVVCLLNNFYPREAKVQWKVDNALQSGNSQESVTEQDSKDSTYSLSSTLTLSKADYEKHKVYACEVTHQGLSSPVTKSFNRGEC
chain: EVQLVESGGGLVQPGGSLRLSCAASGYTFTRYTMHWVRQAPGKGLEWIGYINPSRGYTYYADSVKGRFTLSTDKSKNTAYLQMSSLRAEDTAVYYCARYYDDHYCLDYWGQGTLVTVSSGGGGSGGGGSGGGGSGGGASDIQLTQSPSSLSASVGDRVTITCRASSSVSYVAWYQQKPGKAPKRWIYDTSKLYSGVPSRFSGSGSGTDYTLTISSLQPEDFATYYCQQWSSNPPTFGQGTKVEIKGGGGTDKTHTCPPCPAPEAAGGPSVFLFPPKPKDTLMISRTPEVTCVVVDVSHEDPEVQFKWYVDGVEVHNAKTKPREEQYNSTFRVVSVLTVLHQDWLNGKEYKCKVSNKALPAPIEKTISKTKGQPREPEVATFPPSREEMTKNQVTLVCLVTGFYPSDIAVEWESSGQPENNYNTDPPLLESDGSFALSSRLRVDKSRWQQGNIFSCSVMHEALHNRFTQKSLSLSPGK
**Q.** How did the “EC50 of T cell redirected killing of stable recombinant CHO[OX40] cells (RDL-MTS)” value (human OX40 on cells) turn out when B2 was run?
**A.** Its value is 0.5 nM.

B3: BEAT HER2/CD3-2 antibody (bispecific antibody, human IgG1, kappa, L234A L235A)
heavy: not shown
light: not shown
chain: EVQLVESGGGLVQPGGSLRLSCAASGYTFTRYTMHWVRQAPGKGLEWIGYINPSRGYTYYADSVKGRFTLSTDKSKNTAYLQMSSLRAEDTAVYYCARYYDDHYCLDYWGQGTLVTVSSGGGGSGGGGSGGGGSGGGASDIQLTQSPSSLSASVGDRVTITCRASSSVSYVAWYQQKPGKAPKRWIYDTSKLYSGVPSRFSGSGSGTDYTLTISSLQPEDFATYYCQQWSSNPPTFGQGTKVEIKGGGGTDKTHTCPPCPAPEAAGGPSVFLFPPKPKDTLMISRTPEVTCVVVDVSHEDPEVQFKWYVDGVEVHNAKTKPREEQYNSTFRVVSVLTVLHQDWLNGKEYKCKVSNKALPAPIEKTISKTKGQPREPEVATFPPSREEMTKNQVTLVCLVTGFYPSDIAVEWESSGQPENNYNTDPPLLESDGSFALSSRLRVDKSRWQQGNIFSCSVMHEALHNRFTQKSLSLSPGK
**Q.** Which “EC50 of T cell redirected killing of BT-474 cells (RDL-MTS)” value (human HER2 on cells) does the source give for B3 here?
**A.** The value was 0.002 nM.

**Q.** And the “EC50 of T cell redirected killing of JIMT-1 cells (RDL-MTS)” value (human HER2 on cells)?
**A.** Its value is 0.016 nM.

**Q.** And the “EC50 of T cell redirected killing of MDA-MB-231 cells (RDL-MTS)” value (human HER2 on cells)?
**A.** Its value is roughly 0.2 nM.

**Q.** Does B3 bind [1]?
**A.** Result: binds

B4: CD3/CD20 BEAT (SP34 scFv H5/L65 with Rituximab FAB arm) (bispecific antibody)
VH: EVQLVESGGGLVQPGGSLRLSCAASGYTFTSYNMSWVRQAPGKGLEWVSAIYPGNGDTYYADSVKGRFTISRDNSKNTLYLQMNSLRAEDTAVYYCARSTYYGGDWYFNVWGQGTLVTVSS
VL: EVQLVESGGGLVQPGGSLRLSCAASGYTFTSYNMSWVRQAPGKGLEWIGAIYPGNGDTYYADSVKGRATLSADKSKNTAYLQMNSLRAEDTAVYYCARSTYYGGDWYFNVWGQGTLVTVSS
chain: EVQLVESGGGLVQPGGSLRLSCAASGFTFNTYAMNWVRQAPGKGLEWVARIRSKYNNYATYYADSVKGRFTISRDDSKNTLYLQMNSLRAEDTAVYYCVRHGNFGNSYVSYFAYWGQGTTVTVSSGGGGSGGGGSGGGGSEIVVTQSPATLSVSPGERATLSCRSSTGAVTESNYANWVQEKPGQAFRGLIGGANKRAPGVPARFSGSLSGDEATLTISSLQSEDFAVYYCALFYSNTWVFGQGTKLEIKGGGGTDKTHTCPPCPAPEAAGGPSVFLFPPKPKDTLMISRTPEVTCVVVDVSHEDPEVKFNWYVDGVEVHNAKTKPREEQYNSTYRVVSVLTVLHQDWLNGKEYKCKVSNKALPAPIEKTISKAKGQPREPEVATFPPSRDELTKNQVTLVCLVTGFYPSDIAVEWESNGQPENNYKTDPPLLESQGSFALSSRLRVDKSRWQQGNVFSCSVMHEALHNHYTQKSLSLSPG
**Q.** How did the “EC50 of T cell redirected killing of Raji cells (RDL-FACS)” value (human CD20 on cells) turn out when B4 was run?
**A.** Its value is 0.0376 nM.

B5: VECTIBIX (panitumumab)/hSP34 BEAT (bispecific antibody)
VH: QVQLQESGPGLVKPSETLSLTCTVSGGSVSSGDYYWTWIRQSPGKGLEWIGHIYYSGNTNYNPSLKSRLTISIDTSKTQFSLKLSSVTAADTAIYYCVRDRVTGAFDIWGQGTMVTVSS
VL: DIQMTQSPSSLSASVGDRVTITCQASQDISNYLNWYQQKPGKAPKLLIYDASNLETGVPSRFSGSGSGTDFTFTISSLQPEDIATYFCQHFDHLPLAFGGGTKVEIK
chain: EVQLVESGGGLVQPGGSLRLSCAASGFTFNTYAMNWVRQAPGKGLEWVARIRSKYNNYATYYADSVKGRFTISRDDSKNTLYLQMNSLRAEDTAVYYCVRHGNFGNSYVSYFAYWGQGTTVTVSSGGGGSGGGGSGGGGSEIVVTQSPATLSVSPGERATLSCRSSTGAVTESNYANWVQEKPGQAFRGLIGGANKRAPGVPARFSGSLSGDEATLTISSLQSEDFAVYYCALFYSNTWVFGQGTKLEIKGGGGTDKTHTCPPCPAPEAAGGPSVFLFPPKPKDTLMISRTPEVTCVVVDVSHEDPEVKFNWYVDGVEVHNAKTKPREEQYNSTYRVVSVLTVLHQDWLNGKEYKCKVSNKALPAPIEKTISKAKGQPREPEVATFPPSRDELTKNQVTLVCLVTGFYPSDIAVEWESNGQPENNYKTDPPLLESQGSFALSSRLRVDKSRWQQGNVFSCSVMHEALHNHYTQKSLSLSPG
**Q.** With B5 as the binder, how does the “EC50 of redirected T-cell lysis of A549 cells” value (human EGFR on cells [2]) read?
**A.** Its value is 0.000613 nM.

**Q.** And the “EC50 of redirected T-cell lysis of HCC827 cells (value of the text, differs from the table)” value (human EGFR on cells [2])?
**A.** Its value is 0.000156 nM.

**Q.** What about the “EC50 (X)/EC50 (HCC827), HCT116 cells” value (human EGFR on cells [3]) of the same binder?
**A.** The value was 2.3 ratio.

**Q.** And the “EC50 (X)/EC50 (HCC827), MCF7 cells” value (human EGFR on cells [3])?
**A.** The value was 4300 ratio.

**Q.** And the “EC50 (X)/EC50 (HCC827), SW480 cells” value (human EGFR on cells [3])?
**A.** Its value is 47.9 ratio.

**Q.** And the “EC50 of redirected T-cell lysis of HCC827 cells” value (human EGFR on cells [3])?
**A.** Its value is 0.000146 nM.

**Q.** And the “EC50 of redirected T-cell lysis of HCT116 cells” value (human EGFR on cells [3])?
**A.** Its value is 0.000341 nM.

**Q.** And the “EC50 of redirected T-cell lysis of MCF7 cells” value (human EGFR on cells [3])?
**A.** Its value is 0.627 nM.

**Q.** What about the “EC50 of redirected T-cell lysis of SW480 cells” value (human EGFR on cells [3]) of the same binder?
**A.** Its value is 0.00699 nM.

B6: human 767 antibody (antibody, human IgG1, kappa, V domains shown)
VH: QVQLVESGGGLVQPGGSLRLSCAASGFTFSSYWMSWVRQAPGKGLEWVANIKQDGSEKYYVDSVKGRFTISRDNAKNSLYLQMNSLRAEDTAVYYCAREGRTGYFDYWGQGTLVTVSS
VL: QSVLTQPPSASGTPGQRVTISCSGSTSNIGTNYVYWYQQLPGTAPKLLIYRNDQRPSGVPDRFSGSKSGTSASLAISGLRSEDEADYYCAAWDDSRSGVYAFGTGTKVTVLR
notes: Human IgG1; also called clone 767 IgG1 antibody
**Q.** With B6 as the binder, how does the Kd [4] read?
**A.** Its Kd is roughly 1200 nM.

**Q.** And the Kd [5]?
**A.** Its Kd is roughly 300 nM.
